Here are results for 41 sequences from the nanobody polyreactivity screen of Harvey et al. (2022).

This data set in a line: yeast display, Sf9 membrane polyspecificity reagent, FACS + sequencing; frameworks hold sequencing errors. The gist of the method: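 A nanobody's polyreactivity label depends on the gate it was sorted from. Yeast display cells were stained with 10% biotinylated, detergent-solubilized Sf9 membrane reagent for 1 hour at 4 °C, enriched on streptavidin microbeads and sorted by FACS. The low and high (top ~1%) gates were set on anti-HA fluorescence for expression and streptavidin fluorescence for reagent binding.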
Regarding “QDQHVESGGGLVQAGGSLRLSCDASGFIFPYYVMGWYRQAPGKERELVAGISSGGRTNYADSVKGRFTISRDNAKNTVYLQMISLKPEDTAVYYCNDRWYRYPPRVRLYYWGQGTQVTVSS”, the “polyreactivity (PSR sort gate)” value is “high polyreactivity”.
To “QDQHVESGGGLVQAGGSLRLSCDASGFIFTYYAMGWYRQAPGKERELVAAISRSGGNTYYADSVKGRFTISRDNAKNTVYLQMNSLIPEDTAVYYCAAETRRGGYWGYEYYYWGQGTQVTVSS” belongs “high polyreactivity”; to “QDQHVESGGGLVQAVGSLRLSCAASGRIIVDYAMGWYRQAPGKERDLVATITNGGSTNYADSVKGRFTISRDNAKNTVYLQMNSLKPEDTAVYYCAVDYLLDYYSYIEDYWGQGTQVTVSS”, “low polyreactivity”; to “QDQIGESGGGLVQAGGSLSLSCAASGTTIVNNAMGRNRQARWKERELVAAITQRGGRSSYADSVNGRFTISRDNAKNTVYLQMNSLKPEDTAVYYCATVATCRHKGKYNYLGQGTQVTVSS”, “low polyreactivity”.
Then “QDQIVESGGGLVQAGGSLRISCAPSGSILGYYGMGWYRQAPGKERELVAAISSSGNTNYADSVKGRFTISRDNAKNTVYFQMNSLKPDDTAVYYCAASFQYVAYFLYVYWGQGTQVTVSS”, with “low polyreactivity”; and “QDQIVESGGGVVQAGGSLRLSCASSGRIFYDYLGWNRQAPGKETELDADISSGGSTHYADSVKGRFTISRDNAKNTVYLQMNSLKGEDTAVYYCIAVLVLSYDKDWRLIEMDYWGQGTHVTVSS”, with “low polyreactivity”.
Then “QDQLEESGGGLSQAGGSLRLSCAASGINFPSYTMGWSRQATGKERELVAAIDSGGSTYYADSVKGRFTISRDNAKNSVYLQMNSLIPEDTAVYYCAAEPDTYWYTYDYWGQGTQVSVSS”, with “low polyreactivity”; and “QDQLEESGGGLVQAGGSLRLSCAASGSTCVKYARGWYRPAPGKERELVAAISTRGGTTYYADSVKGRFTISRDNAKNTVYLQMNSLKPEDTAVYYCATGSYSRGVAYGYWGQGTQVTVSS”, with “high polyreactivity”; and “QDQLEESGGGLVQAGGSLRLSCAASGYTISPNDMGWYRQAPGKERELVAAITSSVGSTYYADSVKGRFSFSRDNAKNTVYLQMKSLKPEDTAVYYYWGQGTQVTVSS”, with “low polyreactivity”.
With “QDQLEESGGGLVQAGGSLRLSCASSGRIFAGYAMGWYRQAPGKERELVAAISGSGGSTYYADSVKGRFTISRDNAKNTVYLQMNSLKPEDTAVFYCNAGKTSRFQYDYWGQGTQVTVSS”, the “polyreactivity (PSR sort gate)” value was “high polyreactivity”.
Consider “QDQLEESGGGLVQAGGSLRLSCSASGSIFRRNAMGWYRQAPGKERELVAGITRSTGDTYYADSVKGRFTISRDNAKNTVYLQMNSMKPEDTAVYYCAACGSYYRDDYWGQGTQVTVSS”, for which the “polyreactivity (PSR sort gate)” value is listed as “low polyreactivity”.
For “QDQLGDSGGCLVQAGGSLRLSCAASGITFKNYAMVWYRQAPGKEREIVAAISASGGRTYYADSVKGRFTISRDNAKNTVYFPMNSLIPEDTAVYYCNAVYIGSRSRYEYDYWGQGSQVTVSS”, the “polyreactivity (PSR sort gate)” value is listed as “high polyreactivity”.
On to “QDQLGDSGGGLLQAGGSLRLSCAASGQIYFDNMGWYRQAPGKEREMVAAISSSGASTSYADSVKGRFTISRDNAKNTVYLQIYSLNPEDTAVYYCAADSYPAYLGFVGFDYWGQGTQVTVSS”, for which the “polyreactivity (PSR sort gate)” value was “low polyreactivity”.
Then “QDQLGESGGGLVQAGGRLRLSCAASGFIIWNYGMGWYRQPPGKERELVAAISSGGTITKYADSVKGRFTISRDNAKNTVYLQMNSLKPEDTAVYYWAARWGVRAGYATFDYWGQGTQVTVSS”, with “high polyreactivity”.
Then “QDQLGESGGGLVQAGGSLRLSGAASGSTFSRNAMGWYRQAPGKERELVAAISRSGGSTHYADSVKGRFTISRDNAKNTVYLQMNSQKPEDTAVYYCAARVPRGDLPGYHYAYYYWGQGTQVTVSS”, with “high polyreactivity”.
To “QDQLGESGGGVVQAGGSLRLSCAAYGRTLHYYAMGWYRQAPGKERELVAGIRDSGGSTYYADSVKGRFTISRDNEMNTVYFLMNSLKPEDTAVYYCAARSHRRLMYYWGQGTQVNVSS” belongs “high polyreactivity”; to “QDQLVDSGGGLVQAGGSLRLSCAASGRIIFYYTMGSYSQAPGKESELVAAINSTGSTNYADSVKGRFTISRDNAKNTVYLQMNSLKPEDTAVYYCNAGTRYIFLYPPFLGAAFDYWGQGTQVTVSS”, “low polyreactivity”.
For “QDQLVDSGGGLVQAGGSLRLSCAASGSIFPIYAMGGYRQAPGKERELVAAIDWGDGSTSYADSVKGRFTISRDNAKNTVYLQMNSLKPEDTAVYYCAARSVFDLVYYNLIFDYWGQGTQVTVSS”, the “polyreactivity (PSR sort gate)” value is reported as “high polyreactivity”.
Take “QDQLVDSGGGLVQAGGSLRLSSSDSGSIFRYYTMGWYRQSPGKERELVARISSSRSTNYADSVKGRFTISRDNAKNTVYLQMNSLKPEDTEVYYCAARAFSWAGFYYWGQGTQVTVSS”: the “polyreactivity (PSR sort gate)” value was “low polyreactivity”.
On to “QDQLVDSGGRLVQGGGSLRLSCAASGYIFIWYDMGWYRQAPGKERELVAAISGSGGYTYYADSVKGRFTISRDNAKNTVFLQMNSLKPEDTAVYYCAAYVARGNSEVIAMDYWGQGTQVTVSS”, for which the “polyreactivity (PSR sort gate)” value is “low polyreactivity”.
“QDQLVDSGVCLVQARGSLRLSCAASGRIFDAYTMGWYRQAPGKESELVASITGRDGSTYYADSVKGRFTISRDNAKNTVYLQMNSLKPEDTAVDYCNAKYSSFGIRYNYWGQGTQVTVSS”: the “polyreactivity (PSR sort gate)” value is on record as “high polyreactivity”.
In the case of “QDQLVESAAGLVQAGGSLRLSCAASGSTFATYAMGWYRKAPGKERELVAAITASGGRTFYADSVKGRFTLSRDNAKNTVYLQMNSLKPEDPAVYYCAKRGDYVPYTFDYWGQGTQVTVSS”, the “polyreactivity (PSR sort gate)” value is on record as “high polyreactivity”.
In the case of “QDQLVESAGGIVQAGGRLRLSCAASGTLYINVMGWYRQSPGKERELVAAISSNGARTYYADSVKGRFTISRDNAKNTVYLQMNSLKPEDTAVYYCDASFYFYSLYGYWGQGTQVTVSS”, the “polyreactivity (PSR sort gate)” value is given as “high polyreactivity”.
Then “QDQLVESAVGLVQAGGSLRLSCDASGSTFDFYDIGWYRQAPGKERELVATIRWSGDTTYYADSVKGRFTISRDNAKNTVYLQMTRLKPEDTAVYYCNADYFGQESWWMDYWGQGTQVTVSS”, with “low polyreactivity”.
To “QDQLVESCGALLQAGGSLRLSCAASGITIDTYFMGRYRQAPGKETELLAAISNSDGSTYYADSVKGRFTISRDNAKHTVYLPMNSLKPEDTAVYYCNAQSYYSWHLRYDYWGQGTQVTVSS” belongs “high polyreactivity”.
Then “QDQLVESCGGLVQAGGSLRLSCAASGHIFIYYAMGWYRQAPWKERELVAVISGSGGRTYYADSVKGRFTISRDYAKNTVSLQMNSLKPEDTAVYYCAAAVRYYPHYDSWGQGTQVNVSS”, with “low polyreactivity”.
Turning to “QDQLVESGGALGQAGGSLRLSCAASGSIFFYYAMGCYRQAPGKEREFVAHITSSEASTHYADSVKGRFTISRDTAKNTVYLQMNSLIPEDTAVYYCAADRYPGHRERDFWGQGSQVTVSS”, the “polyreactivity (PSR sort gate)” value is “low polyreactivity”.
In the case of “QDQLVESGGALVQAGGSLRLSCAASGFTFYKNAMGWYRQAPGKERELVAAISADGGRTYYADSVKGRFTISRDNAKNTVYLQMNSLKPEDTAVYYCAADKRLFRRPKTYDLWGQGTQVTVSS”, the “polyreactivity (PSR sort gate)” value was “high polyreactivity”.
To “QDQLVESGGALVQAGGSLRLSCAPSGGTFWIYAMGWYRQAPGKERELVAGITTSGATTYYADSVKGRFTISRDNAKNTVYLQMNSLKPVDTAVYYCAADEYYRYEYWGHGTQVTVSS” belongs “low polyreactivity”; to “QDQLVESGGCLVQAGGSLRLSCAASGSIFTKYAMGWYRQAPGKERELVAAIDVNGGSTRYADSVKGRFTISRDNAKNTVYLQMNSLKPEDTAVYYCAKDYTASYYPQGLYDYWGQGTQVTVSS”, “low polyreactivity”; to “QDQLVESGGCLVQAGGSLRLSCAASGSTFRSNAMGWYRQAPGKERELVAAISRGGSTNYADSVKGRFTISRDNAKNTVYLQMNSLKTEDTAVYYCNADWDYRDFYDITYDYWGQGTQVTVSS”, “low polyreactivity”.
For “QDQLVESGGCLVQAGGSLRLSCADSGSNFWYYAMVWYRQAPGKERELVAAITSAGSTYYADSVKGRFTISRDNAKITVYLQINSLKPEDTAVYYCAKVKAWSEYYYWGQGTQVTVSS”, the “polyreactivity (PSR sort gate)” value is “low polyreactivity”.
To “QDQLVESGGGIVQAGGSLRLSCAASGFTFHNNVMGWNRQAPGKERELVATISKSGGSTYYADSVKGRFTISRDNAKNTVYLQMNSLKPEDTAVYYCAGRYRDYGRYGYWGQGTQVTVSS” belongs “high polyreactivity”.
To “QDQLVESGGGIVQAGGSLRLSCAASGSTFDFNAMGWYRQAPGKERELVASISWETGGTYADSVKGRFTISRDNGKNTVYLQMKSLNPEDTAVYYCAARPDYFIFEYWGQGTQVTVSS” belongs “low polyreactivity”; to “QDQLVESGGGLDQAGGSLRLICAASGRIFIYYAMGWYRQAPGKETELVAAISSTGTTNYADSVKGRFTISRDNAKNTVYLQMTSLKPEDTAVYFCAARVRTATRRFTSYSWGQGTQVTVSS”, “high polyreactivity”; to “QDQLVESGGGLDQAGGSLRLSCAASGFTFIRYAMGWYRQAPGKERELVATITRSGGSTYYADSVKGRFTISRDHAKNTVYLQMNSLKPEDTAVYYCAKRGTLGSYYYWGQGTQVTVSS”, “high polyreactivity”.
Then “QDQLVESGGGLDQAGGSLRLSCAASGRIFALNAMGWYRQAPGKERELVATIRWRGGSTYYADSVKGRFTISRDYAKNTVYLQMNSLKPEDTAVYYCASYSGNRRTYDYWGQGTQVTVSS”, with “high polyreactivity”.
On to “QDQLVESGGGLDQAGGSLRLSCAASGRIFDVYAMGWYRQAPGKERELVAAISWSGSSTYYADSVKGRFTISRDNAKNTVYLQMNSLKPEDTAVYSCATVLRVTRVDYWGQGTQVTVSS”, for which the “polyreactivity (PSR sort gate)” value is on record as “high polyreactivity”.
For “QDQLVESGGGLDQEGGSLRLSCAASGIFSYEAMGWNRQAPGKERELVATISRRGSSTYYADSVKGRFTISRDNAKNTVYLQMNSLKPEDSAVYYCAAVRYISPAFLPASSYELGYWGQGSQVTVSS”, the “polyreactivity (PSR sort gate)” value is on record as “low polyreactivity”.
In the case of “QDQLVESGGGLVHAGGSHRFSCAASGFTFGAYAMGWSRQAPGKERELVATITNSGRTYYADSVKGRFTISRDNAKNTVYLQMNSLKPEDTAVYYCAAQPDGQAMEHWGQGTQVTVSS”, the “polyreactivity (PSR sort gate)” value is listed as “low polyreactivity”.
Then “QDQLVESGGGLVQAAGSLRLTCAASGLTFAYYAMGWNRQAPGKERELVAAISWNGGRTYYADSVKGRFTISRDNAKNTVYLQMNSLKPEDTAVDYCAAEVTSSFYWGQGSQVTVSS”, with “high polyreactivity”.
